Assays:
[1] = biological target: human BAXΔC21 (human) (UniProt Q07812); test: SEC
[2] = biological target: mouse Bcl-2ΔC22 (mouse) (UniProt P10417); test: SPR
[3] = biological target: human MCL-1ΔN170ΔC23 (human) (UniProt Q07820); test: ELISA

human BAXΔC21 (from UniProt Q07812 1-171) (domain or fragment)
stoichiometry N [1]: 2

mBak Q75L BH3 synthetic peptide
fold weaker affinity than wild-type mBak BH3 [2]: 2.5 fold

phage-displayed human BAK BH3 peptide G82E (from UniProt Q16611 67-92)
IC50 [3]: > 10 µM

Source: publication PMC4888843
